Test results taken from PMC2173577.

Molecular target: Grb2, endogenous in Cos-7 cells (African green monkey (endogenous in Cos-7))
Assay: co-IP

Question: For “Sos-1, endogenous in Cos-7 cells (natural protein)”, which fold excess of the Sos-1–Grb2 complex over the Sos-1–E3b1 complex (co-IP) is on record?
Answer: 10 fold
